From patent publication US20070149453A1

B1: MP8-FL2 (full length MP8 without His tag, from E. coli strain MP820) (protein)
chain: MCVHPGACLPHVGVSWAEFPGHFSVELSSLLVRNVNYEIPSLKKQIAKCQQLQQEYSRKEEECQAGAAEMREQFYHSCKQYGITGENVRGELLALVKDLPSQLAEIGAAAQQSLGEAIDVYQASVGFVCESPTEQVLPMLRFVQKRGNSTVYEWRTGTEPSVVERPHLEELPEQVAEDAIDWGDFGVEAVSEGTDSGISAEAAGIDWGIFPESDSKDPGGDGIDWGDDAVALQITVLEAGTQAPEGVARGPDALTLLEYTETRNQFLDELMELEIFLAQRAVELSEEADVLSVSQFQLAPAILQGQTKEKMVTMVSVLEDLIGKLTSLQLQHLFMILASPRYVDRVTEFLQQKLKQSQLLALKKELMVQKQQEALEEQAALEPKLDLLLEKTKELQKLIEADISKRYSGRPVNLMGTSL
B2: MP8 (original clone, core MP8, N-terminal His tag and thrombin site) (protein)
chain: WIQRIRHEGNSTVYEWRTGTEPSVVERPHLEELPEQVAEDAIDWGDFGVEAVSEGTDSGISAEAAGIDWGIFPESDSKDPGGDGIDWGDDAVALQITVLEAGTQAPEGVARGPDALTLLEYTETRNQFLDELMELEIFLAQRAVELSEEADVLSVSQFQLAPAILQGQTKEKMVTMVSVLEDLIGKLTSLQLQHLFMILASPRYVDRVTEFLQQKLKQSQLLALKKELMVQKQQEALEEQAALEPKLDLLLEKTKELQKLIEADISKRYSGRPVNLMGTSL

Experiments:
[1] = target: T1, p75 TNF Receptor peptide (Dabcyl-C-T-S-T-S-P-T-R-Edans)
T1 chain: CTSTSPTR

[2] = target: T2, p55 TNF Receptor peptide (Dabcyl-N-V-K-G-T-E-D-S-G-Edans)
T2 chain: NVKGTEDSG

[3] = target: T3, IL-1 Type I Receptor peptide (Dabcyl-T-H-G-I-D-A-A-Y-I-Q-Edans)
T3 chain: THGIDAAYIQ

[4] = target: T4, IL-1 Type II Receptor peptide (Dabcyl-Q-T-K-R-T-T-V-K-E-A-Edans)
T4 chain: QTKRTTVKEA

[5] = target: T5, IL-6 Receptor peptide (Dabcyl-A-N-A-T-S-L-P-Edans)
T5 chain: ANATSLP

[6] = target: mouse p55 TNF receptor (mouse) (UniProt P25118); assay: cell-based or functional assay
[7] = target: mouse p75 TNF receptor (mouse) (UniProt P25119); assay: cell-based or functional assay
Sequence of mouse p75 TNF receptor (mouse) (P25119 23-474 limits assumed): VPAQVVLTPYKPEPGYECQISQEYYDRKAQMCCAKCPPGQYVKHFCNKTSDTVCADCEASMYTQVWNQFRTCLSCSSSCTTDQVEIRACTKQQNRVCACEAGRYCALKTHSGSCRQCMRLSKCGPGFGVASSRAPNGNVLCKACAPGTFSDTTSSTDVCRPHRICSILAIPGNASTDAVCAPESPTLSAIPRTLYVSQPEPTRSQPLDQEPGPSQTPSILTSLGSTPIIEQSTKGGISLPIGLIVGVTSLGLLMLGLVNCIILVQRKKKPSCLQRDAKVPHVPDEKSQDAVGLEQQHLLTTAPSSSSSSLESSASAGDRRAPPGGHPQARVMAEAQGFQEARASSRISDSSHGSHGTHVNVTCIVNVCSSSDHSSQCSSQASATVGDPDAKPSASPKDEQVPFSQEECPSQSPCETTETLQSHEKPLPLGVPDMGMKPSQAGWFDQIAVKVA

Sequence of mouse p55 TNF receptor (mouse) (P25118 30-454 limits assumed): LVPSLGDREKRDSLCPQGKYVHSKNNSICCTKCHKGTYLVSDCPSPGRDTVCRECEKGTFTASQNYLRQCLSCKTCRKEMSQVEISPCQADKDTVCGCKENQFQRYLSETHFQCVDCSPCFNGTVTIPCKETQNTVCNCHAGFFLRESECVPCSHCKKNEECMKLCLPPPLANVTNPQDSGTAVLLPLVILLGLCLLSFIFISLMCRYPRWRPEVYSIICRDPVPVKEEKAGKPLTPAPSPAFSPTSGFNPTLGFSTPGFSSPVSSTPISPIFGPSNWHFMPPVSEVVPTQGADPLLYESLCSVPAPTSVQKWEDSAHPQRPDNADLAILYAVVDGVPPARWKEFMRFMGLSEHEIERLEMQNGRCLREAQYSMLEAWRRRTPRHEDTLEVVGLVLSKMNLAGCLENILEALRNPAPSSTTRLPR

| Binder | peptide cleavage (FRET assay) [1] | peptide cleavage (FRET assay) [2] | peptide cleavage (FRET assay, Zn++/Ca++ dependent) [1] | relative peptide cleavage activity (FRET assay) [3] | relative peptide cleavage activity (FRET assay) [4] | peptide cleavage (FRET assay, Zn++/Ca++ dependent) [5] | peptide cleavage (FRET assay, Zn++/Ca++ dependent) [2] | circulating TNF receptor in serum of Balb/c mice after s.c. MP8 (ELISA) [6] [fold] | circulating TNF receptor in serum of Balb/c mice after s.c. MP8 (ELISA) [7] [fold] |
| --- | --- | --- | --- | --- | --- | --- | --- | --- | --- |
| B1 | The same preparation of MP8-FL2 caused cleavage of both R1 ... and R2 (Dabcyl-C-T-S-T-S-P-T-R-Edans; SEQ. ID NO:73) | The same preparation of MP8-FL2 caused cleavage of both R1 (Dabcyl-N-V-K-G-T-E-D-S-G-Edans; SEQ. ID NO:71) and R2 |  |  |  |  |  |  |  |
| B2 |  |  | MP8 cleaves the peptides from both the p55 and p75 TNF receptors (TNF-R1 and TNF-R2) | Clone MP8 shows specificity for several receptors involved in the inflammatory pathway (TNF-R p55 and p75 isoforms, IL-6 receptor and IL-1 receptors) in comparison with control substrates | Clone MP8 shows specificity for several receptors involved in the inflammatory pathway (TNF-R p55 and p75 isoforms, IL-6 receptor and IL-1 receptors) in comparison with control substrates | MP8 also cleaves the IL-6 receptor peptide with high activity | MP8 cleaves the peptides from both the p55 and p75 TNF receptors (TNF-R1 and TNF-R2) | 100 | 100 |
